Data from PMC2276247.

Biological target: Recombinant histidine-tagged human WRN (human) (UniProt Q14191)
Sequence (Q14191 whole entry): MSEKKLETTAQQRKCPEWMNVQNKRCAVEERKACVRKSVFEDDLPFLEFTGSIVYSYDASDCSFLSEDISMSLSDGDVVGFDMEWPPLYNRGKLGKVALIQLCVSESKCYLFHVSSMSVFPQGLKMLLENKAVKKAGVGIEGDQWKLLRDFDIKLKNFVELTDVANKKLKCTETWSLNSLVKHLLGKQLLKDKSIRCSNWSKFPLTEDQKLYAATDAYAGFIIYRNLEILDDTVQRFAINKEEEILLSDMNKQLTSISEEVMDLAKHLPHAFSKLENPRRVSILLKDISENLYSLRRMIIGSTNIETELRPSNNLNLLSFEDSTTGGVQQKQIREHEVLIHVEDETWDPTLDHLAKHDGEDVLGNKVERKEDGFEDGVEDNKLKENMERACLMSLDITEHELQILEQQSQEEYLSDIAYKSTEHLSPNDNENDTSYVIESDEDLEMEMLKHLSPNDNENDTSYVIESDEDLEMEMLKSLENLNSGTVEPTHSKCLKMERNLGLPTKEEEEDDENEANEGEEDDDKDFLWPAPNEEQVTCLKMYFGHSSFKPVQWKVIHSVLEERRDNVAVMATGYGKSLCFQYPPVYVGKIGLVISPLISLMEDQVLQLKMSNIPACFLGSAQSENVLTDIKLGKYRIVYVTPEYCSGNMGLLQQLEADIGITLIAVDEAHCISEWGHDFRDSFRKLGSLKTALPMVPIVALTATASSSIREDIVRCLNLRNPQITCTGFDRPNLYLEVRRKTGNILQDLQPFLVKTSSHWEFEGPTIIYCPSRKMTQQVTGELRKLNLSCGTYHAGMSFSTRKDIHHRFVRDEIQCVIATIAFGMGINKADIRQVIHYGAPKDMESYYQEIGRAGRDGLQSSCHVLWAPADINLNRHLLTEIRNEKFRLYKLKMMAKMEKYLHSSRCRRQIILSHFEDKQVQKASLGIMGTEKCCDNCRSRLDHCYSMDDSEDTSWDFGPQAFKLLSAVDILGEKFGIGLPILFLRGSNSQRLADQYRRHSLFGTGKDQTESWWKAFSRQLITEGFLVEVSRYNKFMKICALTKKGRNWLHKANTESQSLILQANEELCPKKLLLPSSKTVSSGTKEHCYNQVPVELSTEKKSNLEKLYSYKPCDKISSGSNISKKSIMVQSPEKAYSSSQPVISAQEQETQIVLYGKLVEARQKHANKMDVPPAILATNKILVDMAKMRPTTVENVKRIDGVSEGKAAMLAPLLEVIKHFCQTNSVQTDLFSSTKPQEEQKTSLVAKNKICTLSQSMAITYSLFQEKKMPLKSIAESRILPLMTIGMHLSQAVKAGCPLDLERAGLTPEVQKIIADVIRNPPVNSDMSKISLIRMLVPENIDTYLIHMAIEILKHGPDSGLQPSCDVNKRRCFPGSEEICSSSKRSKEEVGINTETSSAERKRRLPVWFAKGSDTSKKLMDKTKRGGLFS

“recombinant human p300 (histone acetyltransferase enzyme p300), Q09472 1-2414” gave a WRN helicase activity on a 22 bp forked duplex with p300 in the absence of acetyl CoA, at the highest WRN concentration of 2 fold.
